{
  "source": "patent US20090074795A1",
  "about": "“Methods for addressing ocular diseases through interference with the wnt signaling pathway” (priority 2007, published 2009)",
  "molecules": {"B1": {"name": "DKK1: Purified Dickkopf-1 protein (R&D System), specific inhibitor of the wnt pathway binding LRP5/6; mouse protein in mice, human in HUVEC (protein, UniProt O54908 32-272; O54908 32-272, looked up)", "Dickkopf-related protein 1 1": "TLNSVLINSNAIKNLPPPLGGAGGQPGSAVSVAPGVLYEGGNKYQTLDNYQPYPCAEDEECGSDEYCSSPSRGAAGVGGVQICLACRKRRKRCMRHAMCCPGNYCKNGICMPSDHSHFPRGEIEESIIENLGNDHNAAAGDGYPRRTTLTSKIYHTKGQEGSVCLRSSDCAAGLCCARHFWSKICKPVLKEGQVCTKHKRKGSHGLEIFQRCYCGEGLACRIQKDHHQASNSSRLHTCQRH", "Dickkopf-related protein 1 2": "B1 Dickkopf-related protein 1 1", "modifications": "mouse protein in mice, human in HUVEC"}},
  "key": {"primary RCEC": {"tested_on": "primary RCEC", "test": "HIF-1 activation and VEGF expression induced by LiCl in primary RCEC", "format": "cell-based, bovine", "conditions": "50 mM LiCl plus 85 ng/ml DKK1, 24 hours", "method": "Blockade of the wnt pathway by DKK1 down-regulates VEGF and HIF-1 expression and reduces vascular leakage in the retina of diabetic rats. To activate the wnt pathway, primary RCEC were treated with 50 mM LiCl, a specific activator of the wnt pathway, in the presence or absence of 85 ng/ml DKK1, a specific inhibitor of the wnt pathway, or BSA for 24 hours. Hypoxia was used as a positive control for HIF-1 activation. The HIF-1 nuclear translocation, a key step in its activation, was measured by immunocytochemistry. Both LiCl and hypoxia increased nuclear levels of HIF-1α, indicating an increased nuclear translocation.\nAccording to embodiments of experimental data, RCEC were exposed to normoxia (FIG. 17A), hypoxia (1% O2) (FIG. 17B), 50 mM LiCl with BSA (FIG. 17C), or 50 mM LiCl plus 85 ng/ml DKK1 (FIG. 17D) for 24 hours. The nuclear translocation of HIF-1α was determined by immunocytochemistry with an antibody against HIF-1α. […] In FIG. 17E, the total levels of VEGF and HIF-1α were determined by western blot analysis with an antibody against HIF-1α or VEGF."}, "OIR rats": {"tested_on": "OIR rats", "test": "Pre-retinal NV and HIF-1α in retinal sections of OIR rats", "format": "in vivo, rat", "method": "Because pre-retinal NV (vasculature growing into the vitreous space) is a characteristic change of diabetic retinopathy, the effect of DKK1 was evaluated on pre-retinal NV. DKK1 was injected into the right vitreous of the OIR rats and BSA into the left vitreous at P15. At P18, pre-retinal NV was examined in retinal sections. […] Furthermore, the nuclear translocation and expression levels of HIF-1α, a key transcription factor activating VEGF expression, were decreased in the retina of the DKK1-injected eye, compared to the eye treated with BSA.\nAccording to embodiments of experimental data and as shown in FIGS. 20A-20C, Brown Norway (BN) rats were exposed to hyperoxia for 5 days (P7-P12). At age of P15, the rats received a single injection of 3 μg of DKK1 into the vitreous of the right eyes and BSA into the left eyes. The eyes were sectioned at P18. Representative retinal sections from normal control rats (FIG. 20A), eyes of OIR rats injected with BSA (FIG. 20B), and OIR retina injected with DKK1 (FIG. 20C) were triple stained with three antibodies: Retinal vascular EC was stained with an antibody against CD31 (Red); the retinal ischemia stress status was detected by an antibody against GFAP (Blue), and the levels and nuclear translocation of HIF-1α were determined by an antibody against HIF-1α (Green)."}},
  "note": "Entries after “also recorded” stand apart in the source; their conditions may differ.",
  "data": [
    {"molecule": "B1", "values": [
      {"measurement": "HIF-1 nuclear translocation induced by LiCl", "setting": "primary RCEC; immunocytochemistry", "value": "inhibited the HIF-1 nuclear translocation; also recorded: blocked"},
      {"measurement": "HIF-1α over-expression induced by activation of the wnt pathway", "setting": "primary RCEC; western blot", "value": "blocked"},
      {"measurement": "VEGF over-expression induced by activation of the wnt pathway", "setting": "primary RCEC; western blot", "value": "blocked"},
      {"measurement": "nuclear translocation and expression levels of HIF-1α in the retina", "setting": "OIR rats; 3 μg intravitreal at P15, sections at P18, vs BSA", "value": "decreased"},
      {"measurement": "neovascular endothelial cells (EC) in the vitreous space (pre-retinal NV)", "setting": "OIR rats; 3 μg intravitreal at P15, sections at P18, vs BSA contralateral eye", "value": "significantly fewer"}
    ]}
  ]
}
